This is an account of results in patent US20120231013A1 (Amgen, published 2012).

Substitutions are numbered along the chain they refer to. “And” between values parts separate entries of the source, which are not always exact repeats. Equal entries are not always repeated.

Sequences and labels used below:
B1: recombinant human TIMP-3 (other, UniProt P35625 24-211, looked up)
chain: CTCSPSHPQDAFCNSDIVIRAKVVGKKLVKEGPFGTLVYTIKQMKMYRGFTKMPHVQYIHTEASESLCGLKLEVNKYQYLLTGRVYDGKMYTGLCNFVERWDQLTLSQRKGLNYRYHLGCNCKIKSCYYLPCFVTSKNECLWTDMLSNFGYPGYQSKHYACIRQKGGYCSWYRGWAPPDKSIINATDP
B2: LRP-1 peptide LA24-26 (peptide)
chain: not shown
notes: The end 3574 is inferred from the end of LA26
B3: LRP-1 peptide LA3-5 (peptide)
chain: not shown
notes: Tags implied (Ni-NTA, anti-HA detection), not described
B4: LRP-1 peptide LA5-7 (peptide)
chain: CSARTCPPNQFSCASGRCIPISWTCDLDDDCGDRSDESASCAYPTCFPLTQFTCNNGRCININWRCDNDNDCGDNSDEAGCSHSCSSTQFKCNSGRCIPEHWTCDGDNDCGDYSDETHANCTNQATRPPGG
notes: as for B3
B5: LRP-1 peptide LA15-17 (peptide)
chain: CPLNYFACPSGRCIPMSWTCDKEDDCEHGEDETHCNKFCSEAQFECQNHRCISKQWLCDGSDDCGDGSDEAAHCEGKTCGPSSFSCPGTHVCVPERWLCDGDKDCADGADESIAAGCLYNST
notes: The end 2817 is inferred from the end of LA17
B6: LRP-1 peptide LA24 (peptide)
chain: not shown
notes: as for B3
B7: LRP-1 peptide LA3-4 (peptide)
chain: not shown
notes: as for B3

For the first assay, the target named is T1, MMP-13 (UniProt P45452 20-471, limits assumed). In words: cell-based or functional assay.
As to B1, the “IC50 of TIMP-3 inhibition of MMP-13 (fluorogenic substrate)” value is 0.5 to 1 nM.

The target in the next assay is T2, recombinant TIMP-3 (human or mouse; Table 2 does not say which).
T2 construct: The methods say 'human or mouse TIMP-3'
The experiment in a line: binding ELISA, Assay 1. (In an ELISA, binding on a coated surface is turned into a signal by an enzyme label.)
Broadly, the EC50 is the midpoint of the concentration-response curve. Take B2: the EC50 is 46 nM and 26 nM.

Turning to B3, the EC50 was 52.5 nM.

On to B4, for which the EC50 turned out to be 210 nM.

As to B5, the EC50 came out at 193 nM.

The target of a further assay is T2, recombinant TIMP-3 (human or mouse; …). In words: binding ELISA, Assay 2.
Regarding B2, the concentration giving a half-maximal response (EC50) turned out to be 80 nM.

With B6, the EC50 was roughly 500 nM.

For the molecule B7, the concentration giving a half-maximal response (EC50) came out at 289 nM.

For another assay the target is unchanged. The experiment in a line: binding ELISA, Assay 3.
Take B2: the EC50 came out at 68 nM.

Regarding B6, the EC50 was roughly 1000 nM.

As to B3, the EC50 was found to be 214 nM.

As for B4, the concentration for a half-maximal effect (EC50) stood at 350 nM.

With B5, the EC50 was 191 nM.

With B7, the EC50 was determined as 500 nM.

In another assay the target is B1. In words: cell-based or functional assay.
Regarding B2, the “% of the inhibitory activity of TIMP-3 + peptide compared to TIMP-3 alone, 16 nM” value (“% of the inhibitory activity … 16 nM” for short) was 92%; the “% of the inhibitory activity of TIMP-3 + peptide compared to TIMP-3 alone, 80 nM” value (from here on “% of the inhibitory activity … 80 nM”) came to 95%; the “% of the inhibitory activity of TIMP-3 + peptide compared to TIMP-3 alone, 400 nM” value (shortened to “% of the inhibitory activity … 400 nM”) came to 105%.

As to B6, the “% of the inhibitory activity … 16 nM” value was 104%; the “% of the inhibitory activity … 80 nM” value amounted to 104%; the “% of the inhibitory activity of TIMP-3 + peptide compared to TIMP-3 alone, 2000 nM” value (from here on “% of the inhibitory activity … 2000 nM”) was 81%.

In the case of B3, the “% of the inhibitory activity … 16 nM” value amounted to 104%; the “% of the inhibitory activity … 80 nM” value was 101%; the “% of the inhibitory activity … 2000 nM” value stood at 101%.

B4: the “% of the inhibitory activity … 16 nM” value is 101%; the “% of the inhibitory activity … 80 nM” value is 99%; the “% of the inhibitory activity … 400 nM” value came to 93%; the “% of the inhibitory activity … 2000 nM” value is 68%.

Take B5: the “% of the inhibitory activity … 16 nM” value was 95%; the “% of the inhibitory activity … 80 nM” value worked out at 82%; the “% of the inhibitory activity … 400 nM” value came out at 83%; the “% of the inhibitory activity … 2000 nM” value came to 91%.

As for B7, the “% of the inhibitory activity … 16 nM” value came out at 104%; the “% of the inhibitory activity … 400 nM” value is 84%; the “% of the inhibitory activity … 2000 nM” value worked out at 91%.

In the next assay the target is T1, MMP-13. In words: cell-based or functional assay. This is another data set of the same source.
Regarding B2, the “Direct Inhibition of MMP13 (% decrease), 1000 nM” value was determined as 59%.

With B6, the “Direct Inhibition of MMP13 (% decrease), 1000 nM” value was -22%.

As to B3, the “Direct Inhibition of MMP13 (% decrease), 1000 nM” value came to 2%.

For B4, the “Direct Inhibition of MMP13 (% decrease), 1000 nM” value is 2%.

In a further assay the target is B1. The experiment in a line: direct ELISA, coated huTIMP-3. The procedure: (§1) After incubation, the coating solution is removed and replaced with 250 microL/well of blocking buffer (1% BSA, TBS [pH 7.5], 1 mM CaCl₂) and incubated with shaking for 1 hour at room temperature. The plates are then washed three times with 200 microL/well with wash buffer 1 (TBS [pH 7.5], 1 mM CaCl₂). The LRP-1 peptides are titrated in assay buffer (0.1% BSA, TBS [pH 7.5], 1 mM CaCl₂, 0.02% Tween-20) in a separate polypropylene non-treated round-bottom 96-well plate (BD Falcon™) starting at 1 microM concentration and then diluted serially 4-fold for 8-points, with the last point buffer only. Then 100 microL/well of the diluted LRP-1 peptide titration is added to the TIMP-3 coated plate and allowed to bind for 1.5 hour at room temperature with shaking. After incubation, the plate is washed three times with 200 microL/well of wash buffer 2 (TBS [pH 7.5], 1 mM CaCl₂, 0.02% Tween-20). […] The assay plate is then washed three times with 200 microL/well with wash buffer 2. The plate is developed by adding 100 microL/well of 1:1 mixture of TMB and H₂O₂ (Pierce, Fisher Thermo Scientific, Rockford Il.), the reaction is stopped by adding 100 microL/well 2NH₂SO₄ (VWR), and read on a SpectraMax microplate reader (Molecular Devices, Sunnyvale, Calif.) at OD450 nm using SOFTmax Pro software version 3.1.2. Data is analyzed using GraphPad Prism 4.01 software. Binding of LRP-1 peptides to TIMP-3 is expressed as binding EC50.
On to B2, for which the EC50 was 28 nM.

Consider B6, for which the concentration for a half-maximal effect (EC50) came to 68 nM.

Turning to B3, the EC50 is 78 nM.

As for B4, the EC50 is 94 nM.

Consider B5, for which the EC50 is 510 nM.

On to B7, for which the EC50 is 226 nM.

For the next assay, the target named is T3, recombinant mouse TIMP-3 (mouse, UniProt P39876 24-211).
T3 construct: also called MuTIMP-3
T3 sequence (looked up): B1 chain with T51S, D87E, Q103H, I183S
In words: direct ELISA, coated muTIMP-3. The procedure: as §1
For the molecule B2, the EC50 was 15 nM.

Turning to B6, the EC50 came to 66 nM.

B3: the EC50 is 71 nM.

Consider B4, for which the EC50 came to 74 nM.

As for B5, the EC50 amounted to 306 nM.

For B7, the concentration for a half-maximal effect (EC50) came to 155 nM.

The target in another assay is T2, recombinant TIMP-3 (human or mouse; …). The experiment in a line: AlphaScreen, biotinylated TIMP-3, Assay 1. The procedure:
(§2) Peptides were also evaluated by AlphaScreen® (Amplified Luminescent Proximity Homogeneous Assay; PerkinElmer, Waltham, Mass.) a very sensitive non-radioactive homogeneous assay technology that allows the screening of a large range of biological interactions and activities, substantially according to the manufacturer's instructions. Briefly, all dilutions are made in AlphaScreen® Buffer: [40 mM HEPES pH 7.5, 100 mM NaCl, 1 mM CaCl2, 0.1% BSA, 0.05% Tween-20]. The LRP-1 peptides are titrated in a separate polypropylene 96-well plate (Falcon) starting at 4 microM concentration and then diluted serially 3-fold for 12-points, with the last point buffer only. First 2 microL/well of protein titration curve is added to white, small volume, 384-well assay plate (Greiner Bio-One, Stonehouse, UK) in duplicate. Next, 2 microL of biotinylated (AFS, in-house conjmicroGation) recombinant human or mouse TIMP-3, is added at 12 nM (or 3 nM final assay concentration) to the assay plate. Lastly, in subdued light 4 microL of a mixture of streptavidin donor beads, anti-mouse IgG acceptor beads (PerkinElmer) both diluted to 20 microG/mL (10 microG/mL final assay concentration) and 2 nM (1 nM final concentration) rat-anti-HA (clone3F10)-HRP (Roche Diagnostics) is added to the plates. Plates containing 8 microL final assay volme are covered with TopSeal A (to prevent evaporation), spun quickly at 1000 rpm, and incubated overnight (covered with foil to prevent light exposure) before reading on Fusion plate reader (PerkinElmer) using AlphaScreen® parameters (excitation 680 nm and emission 520-620 nm). Data is analyzed using GraphPad Prism 4.01 software. Binding to TIMP-3 is reported as total signal (cps).
A general note: In Alpha technology, singlet oxygen from a donor bead excites a nearby acceptor bead.
B2: the “total signal (cps)” value worked out at 150000 cps.

B6: the “total signal (cps)” value was 2200 cps.

On to B3, for which the “total signal (cps)” value was determined as 4000 cps.

On to B4, for which the “total signal (cps)” value worked out at 2000 cps.

B5: the “total signal (cps)” value was found to be 90000 cps.

In the case of B7, the “total signal (cps)” value was found to be 9000 cps.

Another assay shares this target. The experiment in a line: AlphaScreen, biotinylated TIMP-3, Assay 2. The procedure: as §2
Consider B2, for which the “total signal (cps)” value is 120000 cps.

For the molecule B6, the “total signal (cps)” value was 2000 cps.

As to B3, the “total signal (cps)” value came to 9000 cps.

As for B4, the “total signal (cps)” value is 8000 cps.

B5: the “total signal (cps)” value was determined as 70000 cps.

As to B7, the “total signal (cps)” value amounted to 3500 cps.

The target in another assay is B1. In words: indirect ELISA, huTIMP-3 captured by anti-TIMP-3 clone 277128. The method, then: Then 100 microL/well of the diluted LRP-1 peptide titration is added to the TIMP-3 coated plate and allowed to bind for 1.5 hour at room temperature with shaking. After incubation, the plate is washed three times with 200 microL/well of wash buffer 2 (TBS [pH 7.5], 1 mM CaCl₂, 0.02% Tween-20). […] The assay plate is then washed three times with 200 microL/well with wash buffer 2. The plate is developed by adding 100 microL/well of 1:1 mixture of TMB and H₂O₂ (Pierce, Fisher Thermo Scientific, Rockford Il.), the reaction is stopped by adding 100 microL/well 2NH₂SO₄ (VWR), and read on a SpectraMax microplate reader (Molecular Devices, Sunnyvale, Calif.) at OD450 nm using SOFTmax Pro software version 3.1.2. Data is analyzed using GraphPad Prism 4.01 software. Binding of LRP-1 peptides to TIMP-3 is expressed as binding EC50.
After incubation, the plate contents are discarded and 250 microL/well of blocking buffer (1% BSA, TBS [pH 7.5], 1 mM CaCl₂) is added to the plate which is incubated with shaking for 1 hour at room temperature. The plate is then washed three times with 200 microL/well with wash buffer 1 (TBS [pH 7.5], 1 mM CaCl₂) followed by the addition of 100 microL of 20 nM recombinant human TIMP-3. The plate is incubated at room temperature for 1 hour. The LRP-1 peptides are titrated as described previously, and 100 microL/well of the diluted LRP-1 peptide titration is added to the TIMP-3 coated plate and allowed to bind for 1.5 hour at room temperature with shaking. After incubation, the plate is washed and the ELISA performed substantially as described previously for the direct binding ELISA.
Take B2: the EC50 was found to be 8 nM.

Consider B6, for which the EC50 was 10 nM.

As for B3, the half-maximal effective concentration (EC50) worked out at 8 nM.

With B4, the EC50 was determined as 9 nM.

For B5, the EC50 came to 100 nM.

Regarding B7, the EC50 is 81 nM.
